Results on three molecules are retold here after patent US20060024289.

In data set [1] the test system is T1, Ac-IEPD-AMC.
T1 sequence: XIEPDX

Data set [2] deals with T2, Ac-RRVR-AMC.
T2 sequence: RRVR

The target in data set [3] is VEGF165 (UniProt P15692).
Data set [4] addresses T3, Ac-RQAR-AMC.
T3 chain: RQAR

In data set [5] the target is T4, VEGF165, P15692.
T4 chain: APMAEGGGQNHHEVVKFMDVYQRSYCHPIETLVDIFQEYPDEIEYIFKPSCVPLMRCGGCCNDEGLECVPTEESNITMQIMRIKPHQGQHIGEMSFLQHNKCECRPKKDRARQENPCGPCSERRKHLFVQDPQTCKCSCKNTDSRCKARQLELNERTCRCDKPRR

Data set [6] addresses T5, extracellular domain of VEGF-R2 (Flk1) fused to the Fc domain of mouse IgG.
T5 chain: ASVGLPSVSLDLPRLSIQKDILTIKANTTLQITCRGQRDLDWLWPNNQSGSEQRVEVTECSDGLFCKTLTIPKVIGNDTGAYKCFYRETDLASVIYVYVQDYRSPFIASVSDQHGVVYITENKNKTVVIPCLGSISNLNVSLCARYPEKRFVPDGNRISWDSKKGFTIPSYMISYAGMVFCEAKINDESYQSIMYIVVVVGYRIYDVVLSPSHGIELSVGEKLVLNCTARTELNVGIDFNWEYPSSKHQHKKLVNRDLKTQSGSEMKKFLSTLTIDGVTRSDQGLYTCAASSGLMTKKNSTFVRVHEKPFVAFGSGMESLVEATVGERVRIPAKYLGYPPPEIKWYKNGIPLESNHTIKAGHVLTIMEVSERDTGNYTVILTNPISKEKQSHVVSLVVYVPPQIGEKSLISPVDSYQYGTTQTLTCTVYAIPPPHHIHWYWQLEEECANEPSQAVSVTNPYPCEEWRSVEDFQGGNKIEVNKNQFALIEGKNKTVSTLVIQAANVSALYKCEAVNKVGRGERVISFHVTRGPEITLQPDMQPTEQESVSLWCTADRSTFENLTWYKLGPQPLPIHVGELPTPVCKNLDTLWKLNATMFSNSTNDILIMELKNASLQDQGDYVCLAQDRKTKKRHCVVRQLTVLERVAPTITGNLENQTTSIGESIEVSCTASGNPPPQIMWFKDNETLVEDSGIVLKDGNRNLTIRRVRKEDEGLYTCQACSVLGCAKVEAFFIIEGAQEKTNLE

As for rat granzyme B R192A, the “specificity constant (kcat/Km)” value in data set [1] is 55 M⁻¹ s⁻¹.

Turning to MT-SP1 mutein CB152 (F99V/K224F), in data set [2], the “preference of RRVR over RQAR substrate (ratio of kcat/Km)” value is “prefer RRVR to RQAR by greater than 8 fold”. The “cleavage of 5 µM VEGF165 by 100 nM protease, 37° C., five hours (SDS-PAGE, silver stain)” value in data set [3] is “while the more selective variant CB152 does not”.

B1: wild-type MT-SP1 protease domain (protein)
chain: VVGGTDADEGEWPWQVSLHALGQGHICGASLISPNWLVSAAHCYIDDRGFRYSDPTQWTAFLGLHDQSQRSAPGVQERRLKRIISHPFFNDFTFDYDIALLELEKPAEYSSMVRPICLPDASHVFPAGKAIWVTGWGHTQYGGTGALILQKGEIRVINQTTCENLLPQQITPRMMCVGFLSGGVDSCQGDSGGPLSSVEADGRIFQAGVVSWGDGCAQRNKPGVYTRLPLFRDWIKENTGV
As for B1, the preference of RQAR over RRVR substrate (ratio of kcat/Km) in data set [4] was 2 times. The “cleavage of 5 µM VEGF165 by 100 nM protease, 37° C., five hours (SDS-PAGE, silver stain)” value in data set [5] is “MT-SP1 efficiently cleaves VEGF^165 under the assay conditions”. Besides, in data set [6], the “cleavage of purified Flk1-Fc by 1 µM protease (SDS-PAGE, Edman sequencing)” value is “Purified VEGFR2-Fc is cleaved by wild-type and mutant MT-SP1 at the sequence RRVR/KEDE in the extracellular stalk region of the receptor”; the “cleavage of purified VEGFR2-Fc (SDS-PAGE)” value was “The purified VEGFR2-Fc is efficiently cleaved by wild-type and mutant MT-SP1 ... None of the protease variants or wild-type cleave the Fc domain”.
